Conditions in all cases: protein: recombinant; tags: His (pET32a); blunt
The target of data set [1] is T1, MdMYB10-HIS (also printed MdMYB1-HIS) (Malus domestica? (apple), UniProt E2RZU2 1-243).
T1 sequence: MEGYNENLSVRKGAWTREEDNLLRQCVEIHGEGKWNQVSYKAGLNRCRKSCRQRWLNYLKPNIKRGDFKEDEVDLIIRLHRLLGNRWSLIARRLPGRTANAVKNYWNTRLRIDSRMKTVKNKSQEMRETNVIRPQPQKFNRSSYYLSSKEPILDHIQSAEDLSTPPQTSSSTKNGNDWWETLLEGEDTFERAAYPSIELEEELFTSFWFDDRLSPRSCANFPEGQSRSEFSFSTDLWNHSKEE
Nature of the data set: EMSA; not stated (EMSA as described by Xie et al. [40]).

The target of data set [2] is T1, MdMYB10-HIS (also printed MdMYB1-HIS). Put plainly: competition; unlabeled MBS-1m against labeled MBS-1; no competition; not stated (EMSA as described by Xie et al. [40]). A general note: In EMSA bound probe runs differently from free probe, usually more slowly.
For data set [3] the target is unchanged. Put plainly: EMSA; shift seen; authors judge it non-specific; not stated (EMSA as described by Xie et al. [40]).

B1: MdNRT2.4-1(MBS-1) (dsDNA)
DNA 1: TTATAGAGGGTTTTGAGTTGACCGTGTGAAGGGTTGTGAAGAGGC
DNA 2: GCCTCTTCACAACCCTTCACACGGTCAACTCAAAACCCTCTATAA
For B1, the binding result in data set [1] is listed as “binds”.

B2: MdNRT2.4-1(MBS-1m) (dsDNA)
DNA 1: TTATAGAGGGTTTTGAGTTGATTGTGTGAAGGGTTGTGAAGAGGC
DNA 2: GCCTCTTCACAACCCTTCACACAATCAACTCAAAACCCTCTATAA
Take B2: in data set [2], the binding result is “no binding”.

B3: MdNIA2-1(MRE) (dsDNA)
DNA 1: AAGATTTCAGTTTAACAATTAGGTTGATTAGGAACCGGAACCAAA
DNA 2: TTTGGTTCCGGTTCCTAATCAACCTAATTGTTAAACTGAAATCTT
For the molecule B3, the binding result in data set [3] was “binds”.

The values are drawn from PMC9016894, “MdMYB10 affects nitrogen uptake and reallocation by regulating the nitrate transporter MdNRT2.4-1 in red-fleshed apple”.
